From the DeepSol protein solubility set

assay: soluble on expression in E. coli; label from the status in PepcDB or PDB records

Sequence | soluble on expression in E. coli
ATPSRKQRVSTLWISDVHLGTRDCQAEHLSAFLKRYQADKVYLVGDIIDGWKLRGGMYWPQAHTNVIRRLLTMSKRGTEVIYVTGNHDEFLRRYSKLVLGNIQLVDEAEHVTAEGRRLLVIHGDQFDVITRYHRWLAFLGDSAYEFTLTLNRWLNHWRAKYGYGYWSLSAYLKHKVKSAVNFISDFEEAIAHECVKRGLDGVVCGHIHHAEIRQVGGVEYLNCGDWVESCTALIEHLDGTIELFRLADAHLKASQPV | not soluble
MKVPPKKKFLGNSEHPGDLLTQTSKCECQLASVYGNGRVPVKNKKATNAYFQQSIPSWSDTLRMTRQNKKQRGRRRWKKNRKKRRVKTG | not soluble
MGSDKIHHHHHHMMTTVKDSTPAARELYLDLLVRILLNTIYQDPAINPGVRPMVVEPFNPKTRAIGKDWPTQAHTMVGQARLENLRQLSQQVLDDGIVGDFIETGVWRGGCCILMRGVLAANQIHDRKVYVADSFAGLPAPNVELYPRDTGWDLHEFKELAVSLQTVKDNFSRYGLLDEQVVFVEGMFSDTLPSLSAGPFALLRLDGDLYESTIVALNSLYPKLSRGGVVIIDDRALDPCRRAVIDFRDKHGITAPMQEVDWTGSWWRKE | not soluble
MGSDKIHHHHHHMSTVHDEMGVMNTTVKFLHSSDLQIGMTRWFLSDEAQARFDDDRIRAIEKMGKIARKNQCEFIVLAGDVFEHNSLEQRTTGRALEALRSLKLPVYLLPGNHDPLTADSLFYRAKDIDGVTILSDTTVHGVAPGVEIIGAPLLHKMATSDLVAEALKDLEPTSNVRIAVGHGQAEARTTDHRADLIDLNTVEAKLADGTIDYLALGDTHSAQPVGTSGKVWFSGAPETTDFHDLDPDRVGGEVNSGKVLIVSASKGDVSVEEVEVGKWTFHALSKEITSGTDVEDFLDTLQAYPDKSRTVIKYGLRGTITLEQNRRLEEGIAGLEDVFASLKPRERTTDLVLEPGEEELANLDATGYAAEVLRELADSVVNGAAPEEDRDALNLLFRLSREV | not soluble
GPLGSDHVLHVTFPKEWKTSDLYQLFSAFGNIQISWIDDTSAFVSLSQPEQVKIAVNTSKYAESYRIQTYAEYMGRKQEEKQIKRKWTEDSWKEADSKRLN | soluble
MGSDKIHHHHHHMKMTFCRAVCLAAAFLLMGCDEAPETTTASPAAQVLEGKTMGTLWRVSVVGIDAKRAAELQTKIQTQLDADDWLLSTYKNDSALMRFNHSRSLAPWPVSEAMADIVTSALRIGAKTDGAMDITVGPLVNLWGFGPDRQPLHIPTPAQIDAAKAKTGLQHLQVIDRAGHQFLQKDLPDLYVDLSTVGEGYAADHLARLMEQEGIARYLVSVGGALSSRGMNAQGQPWRVAIQKPTDRENAVQAIVDINGHGISTSGSYRNYYELDGKRVSHVIDPQTGRPIEHNLVSVTVIAPTALEADGWDTGLMVLGTQKAQEVVRREGLAVFMIMKEGEGFKTWMSPQFKTFLVSDKN | not soluble
MIAIISLPGISMASSKSLQQAIANIKIWHKGEQRAPHKPLLLLYVLAGYLNGHPRLFDYGTEIYEPLHSLLERFGPQRSQYRPDMPFWRLQGDGIWQLHNAERCSTAGSSRQPPVKELNEYHVAGGFDEQHYALVTGNKKLINTLAQQILEAHFTESIQEEIADELGFDLQQTRKQRDPLFRKNVLRAYNYQCAICGFNMRHDDTTVALEAAHIKWKQHGGPCEIPNGLALCAIHHKAFDKGSIGLDENMRVLVSDAVNGGGIVERLFWDFDGKTIALPQVRKNYPYEGFVGER | not soluble
MNETPTRVYAEIDLDAVRANVRALRARAPRSALMAVVKSNAYGHGAVPCARAAQEAGAAWLGTATPEEALELRAAGIQGRIMCWLWTPGGPWREAIETDIDVSVSGMWALDEVRAAARAAGRTARIQLKADTGLGRNGCQPADWAELVGAAVAAQAEGTVQVTGVWSHFACADEPGHPSIRLQLDAFRDMLAYAEKEGVDPEVRHIANSPATLTLPETHFDLVRTGLAVYGVSPSPELGTPAQLGLRPAMTLRASLALVKTVPAGHGVSYGHHYVTESETHLALVPAGYADGIPRNASGRGPVLVAGKIRRAAGRIAMDQFVVDLGEDLAEAGDEAVILGDAERGEPTAEDWAQAAHTIAYEIVTRIGGRVPRVYLGGLEHHHHHH | soluble
MSLSFELNPIFKRPSVSRELTKRFFFSANNGTRIILFQDSTIRWSFSSDNDHYQSMALRDSDMDVTGAIISDPGDYLCLYNSHQIRVIEIPWGLTNVDEISNSMASSLQERVYNFNEDKLSVKQVLFHPLSKSSPFLVVLFSGSQIAFVDLKNVFKSSDIPIDCFLNLTDSNVMGIDNRVENIQYVVFADDCLSLYSLTDTDVYCFYPCLPPVASLSKNRVDELINKSIVLYENLGIDADDIVRKNVIKQLQLASSLRKKIEEFENANGEVEVNVEIDLEFRQTKAQGYFSISPYPESLYTCTGKQISVLPIGEGNELFLVSFDNGTVLVVFKDKESTMSWDVNDYSFNNSFTLVEIIKFKPEELSNMVVLQGELGKFVVSGEKSTILVDTTKWSSVISKCIRDNDLRPLVGLEMKSTITHINSDMQINSCGIWNSGEAKSLLLVDTNVVVGYQLFKKEVEFKPESAEEISTELENFTLDKFTVPENELKAANYKFQEAVSVPYSKVIPANIKQVPFGSNAMEEQLKILNDISRDVGSKIVQGQSLGLMLYDRLLEQQDKLSEQLIITNKILIRAKKVQGDYPAQLSKLDEKLKKQEHLEKILLKMESNLNTIQESQKLKSLPLSEKEIQLFKELRSQILLFNNFVHKQKDQKQNIQFLKKELQKIIDISRSESSKGMLNEWEELRQILADDAKIIKECNEQLTQISKELDTKNTVTNSEGHHHHHH | soluble
MKIFKFTPENNLFYGYILEDMKTGFNILREIMVEGYRPSIARLYDAEDGTQHFTHFADGKCVLIFMAEGNPRIAKVTGEGIAEIVARYPQCQRVDSKLIETWFNNLNWGPDKVAAERVQILKTGNMGFTTEVSGCWSCIHEIYESVINRIRTEFPHADDITMLGGHSSHSYQNGTNMYFVYDYNVVDCKPEEEIDKYHNPLNKIICEETIRLGGSMVHHHGIGKHRVHWSKLEHGSAWALLEGLKKQFDPNGIMNTGTIYPIEK | soluble
MGSDKIHHHHHHMSENIRALSRGLNVLEFLSETGGATRQATVAHFGLSRPTIYRLLGTLEKSGLISLGDDGVYRPTIATRALKEGLTDDVWALWAAEPILLELQKEVVWTSEITTFDAYSCTMLKRDTTHSLNPYHINLLDFDDNHRSMLTSACGLAYLAFCPQQQRAQILEHLGHFGDRTQSDSQRPDSQRGAGAHTRNLINKVISDGYAVEQRNSYPLIAAIAVPIRYDNRVLACLSIVWLPRAVKLQDGITQFLPALKRAQSFIEQKLLDDASIEYDTNFTAKYVHHGQQHELI | not soluble
MSQLNDSDIILFEYNFHYQNIRSKNTLDIAFGIDRNFLFGCGVAIASILLNNREISCEFHVFTDYISDKDKLYFSDLAKQYNSRINIYVINCDKLKSLPSTKNWTYATYFRFIIADYFYHKHEKILYLDADIACKGSIKELLDYQFSTNEIAAVVAERDVEWWQNRASVLTTPQLASGYFNAGFLLINIDEWNLNNISSKAIEMLRDPDWVSKITHLDQDVLNVLLNGKVKFISEKYNTRYSINYELKDKVDNPVNDDTVFIHYVGPTKPWHEWADYPVSRSFLIAKAASPWSKEDLLKPVNSNQYRYCAKHKFKQKHYMAGIFNYLKYYKEKCF | not soluble
MGSDKIHHHHHHMRNWLLPEYIEDVLPRDAYRIEKIRRLIMDMLFAHGYQFVMPPLLEYVESLLAGSGSGMNLRMFKVVDQLSGRMMGLRADMTPQAARIDAHLLNISGVTRLCYASSVVHTVPDEITRTREPFQVGAELYGHSGIESDLEIQCLLLECLSVSGIHSIHLDLGHIRVFRSLIRDSGIKPEFEMELYAALWAKDISSLKELVRTGLNKRLTRSVQNALLLLPELYGDGTVLLSARQHLPDFPEIGEALDQLEHVARILQPYVDRITFDLADLRGYHYHTGMVFAVYTPGCPAPIALGGRYDEIGKSFGRARPATGFSLDLKQLSQLTDMNGYPSGILAPWKPEDEKLAAMVRQLRAEGHIVVTELPGEENQEVTGCDRKLVFRNGNWEIDPVTG | not soluble
MGRIKRGLDYFPMSTSFMHDRMVRRIMRREGDSAFATLVETLSYIYAGKGYYISVGDEFYEELVDSLYSTELDDVKRIISLSVEYGLFDAGLFRQYNILTSADIQRQYLFITKRRSSALIEPDYCLLESEEITSYRSSQSGKSSTDDSLDSECAEALNGDADHKTACTVTSSFDSVTMEDEIATSGTQNKRKQIKINQNKVNHLPNPPQGGDEGGKYLKSRTAVTQEDIDCLQPPCDGVQRNFQGLTDNLRLYKVPPSEQYAIILKSNFGAIGNPVWKGFNTIRGSNGKIRLPGHYLLSIIN | not soluble
MNKTYMLDTCICSFIMREQPEAVLKRLEQAVLRGQRIVVSAITYSEMRFGATGPKASPRHVELVDAFCARLDAILPWDRAAVDATTEIKVALRMAGTPIGPNDTAIAGHAIAAGAVLVTNNTREFERVPGLVLEDWVR | not soluble
MPKERKERSVSLDKYKRSPLCCEASLALKPSEKQVKEWEEARCPVCMEHPHNGILLICSSYENGCRPYMCDTSHRHSNCFDQFRKASKEKPSLSLLREEEESNEPTEMEDVDSDSTAVNLLGEAASEITVVDLSDGERGEEEVEEEEEEVVVEEEEEGIVTTEEDQEKNKPQKLTCPLCRGHIKEWVVVKAARCFMNSKHRSCSCETCDFSGSYSDLRKHARLLHPGVRPSEADPERQRSWRRLERQSDLGDLLSTLQSSFGGDEISNDDGFLFADTRLLTVYFLIRVFRPESSGSRSSSWSGTSRARTHTSGRRRSSRPASLWGESYEGNTGTSPRDEENNQSSDEQVSGTRRRRSRRRTVIDDDDEEEEP | not soluble
MSLKYAWIDEQCRHYPLSALCEVLAVSINGYRAWKRGGTVQRKRLTDAQLLTLIRTIHAEVKGAYGSPRMTEEIRARGFPASKARVERLMSKNGIRARHKRRYRVTTDSKHKLPVAPNLLNRDFTPDAPNQVFSSDITYIWTDEGWLYLAVVLDLFNREVVGWSIKPRMTADLVTDALMMAWFRRKPAPGALHHSDRGSQYASHEFQRKLADYGMHCSMSRKGNCWDNAPTESFFNSLKNERVHATHYRTHREAAADLFEYIEVFYSRSRRHSSLGFVPPTQFLQDWLTAQQVKDAVAEGHHHHHH | not soluble
MIDSRLLAWAYLSKVVEGPNAHLQKLLKEGHDVERIAFGIKHREEWIGEGLLKNTDSRYSIDTAQTDLETIAKLGGRLITPEDDEWPMEELDHAFGFAASGMSDHVRTYQDDALPPHALWIRGGNLRTLSAQSVTLVGTRAISQYGTEVTREFTQNLVSHQWTIISGGALGVDSVAHSEAVRAQGSTIAIAACGLDRSYPSHNRDLFNQIAKSGKGALVSEYPPGTPPQRHRFLTRNRLVAALSQGTVVVEAAWRSGALNTLSWCAGLGRIAMAVPGPVNTAGSLGCHERIRNGSAQMVTSADDVRSLLGAVGAMDSQTQYELNFAATPVQGLTRNELRVFDALDDRGEGREAASIATEAGLTLQLTIFLLIALNKRGIVKRDGTAWSRNAEMP | not soluble
MSLLGGPGIELFRRLVEEYEREHDVPMADIAAALAVQCRGGEAFLMAPDPPLSRRNRDQRRDRPQRPKRRPDLTTYRVAVGKRHKIGPGAIVGAIANEGGLHRSDFGQIRIGPDFSLVELPAKLPRATLKKLAQTRISGVLIDLRPYRPPDAARRHNGGKPRRKHVGEGHHHHHH | soluble
SLVGTPNLLTLDEADATWTLIKDKVIEEHFGPNAVAVPFLSDAACYDLLGVLVKQSRPAHTRLALPGRQGRRALKPVGPLPSLLEQAGSEGAFAHCTREYSPNGRAERAYEETRMLDGQPCKIRLHMGDLRKKVAFLLLPPGQVSLQQTLPWLRSTHSIYVIYQVFSCSWLQLGLTSTAREPQLLRLLRSLPVAFSCLKFSLQSKGVLGPQKPLTKDPLPHGANWVRPNLSIMPPLAPTSASADTTEAADVPPPVPAPPTPPPQEGPEDKPTRFSYKGRNPFWRGPQILSENWLFSPRSPPPGAQGGGPRDPDGHSMSLPLLQGLSSEFDSDD | not soluble
